Test [1] concerns the target T1, human ghrelin peptide spanning amino acids 20-28 (human).
T1 construct: also called hGhrelin 20-28
T1 peptide: KPPAKLQPR
The test can be described thus: peptide competition with full-length hGhrelin for the Fab.

The target in test [2] is T2, human ghrelin peptide spanning amino acids 4-20 (human).
T2 peptide: FLSPEHQRVQQRKESKK
The test can be described thus: FLIPR calcium assay, peptide competing with hGhrelin for the Fab. The procedure: (§1) The wells are then washed twice with HBSS and 50 μL FLIPR buffer is then added per well.
(§2) Samples are prepared by combining 7.2 μl calcium concentrate (CaCl₂-2H₂O in water at 3.7 mg/ml mixed 1:1 with HBSS and filter sterilized) with 30 μl peptide, 30 μl Fab (of varying concentration), and 16.8 μl hGhrelin (2.5 μM stock) in 3.75% BSA/50% HBSS. The final concentration of the sample solution is 0.75% BSA, and calcium at approximately the same concentration as in the FLIPR buffer. Fifty microliters of the sample solution is added to the 50 μl FLIPR buffer in the well with the AV12 cells. The final concentration of the peptide is 100 nM and the final concentration of the hGhrelin is 0.83 nM. The cell plate is shaken for about 15 seconds prior to loading it into the FLIPR instrument. Test samples or control samples are added to each well, and read by a Fluorometric Imaging Plate Reader (Molecular Devices).
(§3) If there is no Fab or an irrelevant antibody present in the solution, the full-length hGhrelin will be free to bind the GHS-R1a receptor on the AV12 cells and signal transduction will occur resulting in comparatively high values in the assay. If a Fab is present that binds to the full-length hGhrelin in the solution, then the full-length hGhrelin binding to the GHS-R1a receptor is inhibited and signal transduction is thereby inhibited resulting in comparatively lower values in the assay. However, if a peptide (i.e., a fragment of human ghrelin) is also added to the solution and the Fab binds the peptide, then the full-length hGhrelin is not prevented from binding the GHS-R1a receptor, signal transduction is not inhibited, and the values in the assay are comparatively high. […] The peptides competing with hGhrelin for Fab binding were used in the assay at a concentration over 50 times that of hGhrelin.

The target of test [3] is T3, human ghrelin peptide spanning amino acids 18-28 (human).
T3 construct: also called hGhrelin 18-28; ghrelin peptide 18-28
T3 peptide: SKKPPAKLQPR
Described as above. The procedure:
as §1, §2, §3

Changes are numbered by the printed parent chain.

The values that follow come from US20070237775A1 (Eli Lilly, published 2007).

B1: Fab 3281 (Fab, V domains shown)
VH: QVQLQQSRAELAKPGASVKMSCKASGYTFTSYWMHWVKQGPGQGLEWIGYINPSTGYTEYTQKFKDKATLTADKSSSTAYMQLSSLTSEDSAVYYCATDGYDEDYWGQGTTLTVSS
VL: DAVMTQIPLTLSVTIGQPASISCRSSQSLGHSNGNTYLHWYLQKPGQSPKLLIYKVSNRFSGVPDRFSGSGSGTDFTLKISRVEAEDLGTYFCSQSTLVPWTFGGGTKLEIKR
notes: Murine Fab from an Omniclonal antibody library (immunized C57/Bl6 mice); kappa light chain (captured and detected with goat anti-mouse kappa)
Consider B1, for which the binding result in test [1] was “no binding”; in test [2] it was “no binding (tested: peptide 100 nM)”; in test [3], “no binding (tested: peptide 100 nM)”.

B2: Fab 4281 (Fab, V domains shown)
VH: QVQLQQSRAELAKPGASVKMSCKASGYTFTSYWIHWIKQRPGQGLEWIGYIDPGIGNIEYNQKFQDKATLTADKSSSIVYMQLNRLTSEDSAVYYCATDGYDEDYWGQGTTLTVSS
VL: B1 VL with A2V, I7T, T10S, S12P, T14S, I15L, Q17D, P18Q, G30V
notes: Murine Fab, kappa light chain
Regarding B2, the binding result in test [2] is reported as “no binding (tested: peptide 100 nM)”.

B3: Fab 4731 (Fab, V domains shown)
VH: B1 VH
VL: B1 VL with A2V, I7T, T10S, S12P, T14S, I15L, Q17D, P18Q, G30V
notes: Murine Fab, kappa light chain
For the molecule B3, the binding result in test [2] is “no binding (tested: peptide 100 nM)”.
